Reference: patent US20210107998A1 (Boehringer Ingelheim, published 2021)
Positions count from the first letter of the chain named.

Key:
Test in all cases: cell-based or functional assay
[1] = molecular target: T1, Recombinant human BAFF trimer (Boehringer Ingelheim Pharmaceuticals, Inc.) (human, UniProt Q9Y275 134-285, limits assumed)
[2] = molecular target: Recombinant human BAFF 60mer (Boehringer Ingelheim Pharmaceuticals, Inc.) (human, UniProt Q9Y275 134-285, limits assumed)
[3] = molecular target: T2, Recombinant human IL-23 (human, UniProt P29460 23-328)
T2 sequence 1: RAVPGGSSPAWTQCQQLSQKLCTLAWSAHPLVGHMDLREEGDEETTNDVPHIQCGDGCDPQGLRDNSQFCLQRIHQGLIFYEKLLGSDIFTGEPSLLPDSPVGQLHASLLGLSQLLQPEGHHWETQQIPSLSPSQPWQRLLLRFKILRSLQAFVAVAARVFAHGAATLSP
T2 sequence 2: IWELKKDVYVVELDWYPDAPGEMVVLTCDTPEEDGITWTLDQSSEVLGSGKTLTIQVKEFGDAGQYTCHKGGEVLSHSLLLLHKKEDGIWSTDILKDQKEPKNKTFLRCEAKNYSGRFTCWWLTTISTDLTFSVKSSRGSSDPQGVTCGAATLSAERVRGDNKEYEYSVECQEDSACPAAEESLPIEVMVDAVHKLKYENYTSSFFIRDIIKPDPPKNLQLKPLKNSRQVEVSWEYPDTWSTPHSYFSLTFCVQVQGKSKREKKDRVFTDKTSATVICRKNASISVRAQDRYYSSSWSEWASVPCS

[4] = molecular target: cynomolgus IL-23 (cynomolgus, UniProt H6WS56 20-189)
[5] = molecular target: T2, Recombinant human IL-23; remark: listed apart in the source
[6] = molecular target: Recombinant cynomolgus BAFF trimer (Boehringer Ingelheim Pharmaceuticals, Inc.) (cynomolgus, UniProt A0A2K5V2X4 134-285)
[7] = molecular target: T1, Recombinant human BAFF trimer …; remark: listed apart in the source
[8] = molecular target: membrane-bound human BAFF on fixed CHO-K1 cells (human, UniProt Q9Y275 1-285)

B1: Compound O (bispecific antibody, human IgG1, kappa, L234A L235A)
chain 1: DIQMTQSPSSLSASVGDRVSITCKASQNAGIDVAWFQQKPGKAPKLLIYSKSNRYTGVPSRFSGSGSGTDFTLTISSLQPEDFADYYCLQYRSYPRTFGGGTKLEIKGGGSGGGGQVQLVQSGAEVKKPGSSVKVSCKASGYTFTDQTIHWMRQAPGQGLEWIGYIYPRDDSPKYNENFKGKVTITADKSTSTAYMELSSLRSEDTAVYYCAIPDRSGYAWFIYWGQGTLVTVSSLGGGSGASTKGPSVFPLAPSSKSTSGGTAALGCLVKDYFPEPVTVSWNSGALTSGVHTFPAVLQSSGLYSLSSVVTVPSSSLGTQTYICNVNHKPSNTKVDKRVEPKSCDKTHTCPPCPAPEAAGGPSVFLFPPKPKDTLYITREPEVTCVVVDVSHEDPEVKFNWYVDGVEVHNAKTKPREEQYNSTYRVVSVLTVLHQDWLNGKEYKCKVSNKALPAPIEKTISKAKGQPREPQVYTLPPSREEMTKNQVSLTCLVKGFYPSDIAVEWESNGQPENNYKTTPPVLDSDGSFFLYSKLTVDKSRWQQGNVFSCSVMHEALHNHYTQKSLSLSPG
chain 2: DIQMTQSPSSLSASVGDRVTITCKASRDVAIAVAWYQQKPGKVPKLLIYWASTRHTGVPSRFSGSGSRTDFTLTISSLQPEDVADYFCHQYSSYPFTFGSGTKLEIKGGGSGGGGQVQLVQSGAEVKKPGASVKVSCKASGYSFSTFFIHWVRQRPGQGLEWIGRIDPNSGATKYNEKFESKVTLTRDTSISTAYMELSRLRSDDTAVYYCARGEDLLIRTDALDYWGQGTSVTVSSLGGGSGRTVAAPSVFIFPPSDEQLKSGTASVVCLLNNFYPREAKVQWKVDNALQSGNSQESVTEQDSKDSTYSLSSTLTLSKADYEKHKVYACEVTHQGLSSPVTKSFNRGEC
B1 was tested, and the “IC50, NFkB luciferase reporter, human BAFFR-CHO cells” value [1] was 0.027 nM, the “IC90, NFkB luciferase reporter, human BAFFR-CHO cells” value [1] was 0.119 nM and the “IC50, NFkB luciferase reporter, human BAFFR-CHO cells” value [2] was 0.005 nM. The “IC90, NFkB luciferase reporter, human BAFFR-CHO cells” value [2] was 0.006 nM.

B2: Compound Q (bispecific antibody, human IgG1, kappa, L234A L235A)
chain 1: B1 chain 1 with D85T, G100Q
chain 2: B1 chain 2 with R155A, K182R, L185M
In the case of B2, the “IC50, NFkB luciferase reporter, human BAFFR-CHO cells” value [1] is reported as 0.026 nM, the “IC90, NFkB luciferase reporter, human BAFFR-CHO cells” value [1] is reported as 0.108 nM and the “IC50, NFkB luciferase reporter, human BAFFR-CHO cells” value [2] is reported as 0.005 nM. For the same binder, the “IC90, NFkB luciferase reporter, human BAFFR-CHO cells” value [2] was 0.013 nM.

B3: Compound R (bispecific antibody, human IgG4 S228P, kappa)
chain 1: DIQMTQSPSSLSASVGDRVSITCKASQNAGIDVAWFQQKPGKAPKLLIYSKSNRYTGVPSRFSGSGSGTDFTLTISSLQPEDFATYYCLQYRSYPRTFGQGTKLEIKGGGSGGGGQVQLVQSGAEVKKPGSSVKVSCKASGYTFTDQTIHWMRQAPGQGLEWIGYIYPRDDSPKYNENFKGKVTITADKSTSTAYMELSSLRSEDTAVYYCAIPDRSGYAWFIYWGQGTLVTVSSLGGGSGASTKGPSVFPLAPCSRSTSESTAALGCLVKDYFPEPVTVSWNSGALTSGVHTFPAVLQSSGLYSLSSVVTVPSSSLGTKTYTCNVDHKPSNTKVDKRVESKYGPPCPPCPAPEFLGGPSVFLFPPKPKDTLYITREPEVTCVVVDVSQEDPEVQFNWYVDGVEVHNAKTKPREEQFNSTYRVVSVLTVLHQDWLNGKEYKCKVSNKGLPSSIEKTISKAKGQPREPQVYTLPPSQEEMTKNQVSLTCLVKGFYPSDIAVEWESNGQPENNYKTTPPVLDSDGSFFLYSRLTVDKSRWQEGNVFSCSVMHEALHNHYTQKSLSLSLG
chain 2: B1 chain 2 with R155A, K182R, L185M
For B3, the “IC50, NFkB luciferase reporter, human BAFFR-CHO cells” value [1] was 0.03 nM, the “IC90, NFkB luciferase reporter, human BAFFR-CHO cells” value [1] was 0.139 nM and the “IC50, NFkB luciferase reporter, human BAFFR-CHO cells” value [2] was 0.005 nM. The “IC90, NFkB luciferase reporter, human BAFFR-CHO cells” value [2] was 0.016 nM.

B4: Compound P (bispecific antibody, human IgG4 S228P, kappa)
chain 1: B3 chain 1 with T85D, Q100G
chain 2: B1 chain 2
In the case of B4, the “IC50, NFkB luciferase reporter, human BAFFR-CHO cells” value [1] is reported as 0.019 nM, the “IC90, NFkB luciferase reporter, human BAFFR-CHO cells” value [1] is reported as 0.088 nM and the “IC50, NFkB luciferase reporter, human BAFFR-CHO cells” value [2] is reported as 0.002 nM. For the same binder, the “IC90, NFkB luciferase reporter, human BAFFR-CHO cells” value [2] was 0.009 nM.

B5: Compound X (bispecific antibody, human IgG4 S228P, kappa)
chain 1: SSELTQDPAVSVALGQTVRVTCQGDSLRSYYASWYQQKPGQAPVLVIYGKNNRPSGIPDRFSGSSSGNTASLTITGAQAEDEADYYCSSRDSSGNHWVFGGGTELTVLGGGSGGGGQVQLVQSGAEVKKPGSSVKVSCKASGYTFTDQTIHWMRQAPGQGLEWIGYIYPRDDSPKYNENFKGKVTITADKSTSTAYMELSSLRSEDTAVYYCAIPDRSGYAWFIYWGQGTLVTVSSLGGGSGASTKGPSVFPLAPCSRSTSESTAALGCLVKDYFPEPVTVSWNSGALTSGVHTFPAVLQSSGLYSLSSVVTVPSSSLGTKTYTCNVDHKPSNTKVDKRVESKYGPPCPPCPAPEFLGGPSVFLFPPKPKDTLYITREPEVTCVVVDVSQEDPEVQFNWYVDGVEVHNAKTKPREEQFNSTYRVVSVLTVLHQDWLNGKEYKCKVSNKGLPSSIEKTISKAKGQPREPQVYTLPPSQEEMTKNQVSLTCLVKGFYPSDIAVEWESNGQPENNYKTTPPVLDSDGSFFLYSRLTVDKSRWQEGNVFSCSVMHEALHNHYTQKSLSLSLG
chain 2: DIQMTQSPSSLSASVGDRVTITCKASRDVAIAVAWYQQKPGKVPKLLIYWASTRHTGVPSRFSGSGSRTDFTLTISSLQPEDVADYFCHQYSSYPFTFGSGTKLEIKGGGSGGGGQVQLQQSGAEVKKPGSSVRVSCKASGGTFNNNAINWVRQAPGQGLEWMGGIIPMFGTAKYSQNFQGRVAITADESTGTASMELSSLRSEDTAVYYCARSRDLLLFPHHALSPWGRGTMVTVSSLGGGSGRTVAAPSVFIFPPSDEQLKSGTASVVCLLNNFYPREAKVQWKVDNALQSGNSQESVTEQDSKDSTYSLSSTLTLSKADYEKHKVYACEVTHQGLSSPVTKSFNRGEC
In the case of B5, the “IC50, NFkB luciferase reporter, human BAFFR-CHO cells” value [1] is reported as 0.106 nM, the “IC90, NFkB luciferase reporter, human BAFFR-CHO cells” value [1] is reported as 0.361 nM and the “IC50, NFkB luciferase reporter, human BAFFR-CHO cells” value [2] is reported as 1.55 nM. The “IC90, NFkB luciferase reporter, human BAFFR-CHO cells” value [2] was 6.84 nM.

B6: Control Antibody 4 (anti-IL-23A monoclonal antibody) (IL-23A (1)) (antibody, V domains shown)
VH: QVQLVQSGAEVKKPGSSVKVSCKASGYTFTDQTIHWMRQAPGQGLEWIGYIYPRDDSPKYNENFKGKVTITADKSTSTAYMELSSLRSEDTAVYYCAIPDRSGYAWFIYWGQGTLVTVSS
VL: DIQMTQSPSSLSASVGDRVTITCKASRDVAIAVAWYQQKPGKVPKLLIYWASTRHTGVPSRFSGSGSRTDFTLTISSLQPEDVADYFCHQYSSYPFTFGSGTKLEIK
In the case of B6, the “IC50, STAT3-luciferase reporter in DB lymphoblast B cells” value [3] is reported as 0.079 nM, the “IC90, STAT3-luciferase reporter in DB lymphoblast B cells” value [3] is reported as 0.634 nM and the “IC50, IL-23-induced mouse IL-17 release from mouse splenocytes” value [4] is reported as 0.064 nM. For the same binder, the “IC90, IL-23-induced mouse IL-17 release from mouse splenocytes” value [4] was 0.331 nM, the “IC50, IL-23-induced mouse IL-17 release from mouse splenocytes” value [5] was 0.084 nM and the “IC90, IL-23-induced mouse IL-17 release from mouse splenocytes” value [5] was 0.366 nM.

B7: Control Antibody 1 (anti-BAFF monoclonal antibody) (BAFF (1)) (antibody, V domains shown)
VH: QVQLQQSGAEVKKPGSSVRVSCKASGGTFNNNAINWVRQAPGQGLEWMGGIIPMFGTAKYSQNFQGRVAITADESTGTASMELSSLRSEDTAVYYCARSRDLLLFPHHALSPWGRGTMVTVSS
VL: SSELTQDPAVSVALGQTVRVTCQGDSLRSYYASWYQQKPGQAPVLVIYGKNNRPSGIPDRFSGSSSGNTASLTITGAQAEDEADYYCSSRDSSGNHWVFGGGTELTVL
In the case of B7, the “IC50, NFkB luciferase reporter, human BAFFR-CHO cells” value [1] is reported as 0.232 nM, the “IC90, NFkB luciferase reporter, human BAFFR-CHO cells” value [1] is reported as 0.743 nM and the “IC50 Geomean, NFkB luciferase reporter, human BAFFR-CHO cells” value [6] is reported as 0.288 nM. For the same binder, the “IC90 Geomean, NFkB luciferase reporter, human BAFFR-CHO cells” value [6] was 0.635 nM, the “IC50 Geomean, NFkB luciferase reporter, human TACI-CHO cells” value [7] was 0.273 nM and the “IC90 Geomean, NFkB luciferase reporter, human TACI-CHO cells” value [7] was 0.576 nM. For the same binder, the “IC50, NFkB luciferase reporter, human BAFFR-CHO cells” value [2] was 24.1 nM, the “IC90, NFkB luciferase reporter, human BAFFR-CHO cells” value [2] was 180 nM and the “IC50, NFkB luciferase reporter, human BAFFR-CHO cells stimulated with fixed human BAFF CHO-K1 cells” value [8] was 0.553 nM. For the same binder, the “IC90, NFkB luciferase reporter, human BAFFR-CHO cells stimulated with fixed human BAFF CHO-K1 cells” value [8] was 10.1 nM.
